Measured values from PMC6269477.

What was measured:
[1] = biological target: PBP1A (untagged, purified) (E. coli) (UniProt P02918)
[2] = biological target: PBP1B (untagged, purified) (E. coli) (UniProt P02919)
PBP1B (untagged, purified) (E. coli), sequence (P02919 46-844 limits assumed): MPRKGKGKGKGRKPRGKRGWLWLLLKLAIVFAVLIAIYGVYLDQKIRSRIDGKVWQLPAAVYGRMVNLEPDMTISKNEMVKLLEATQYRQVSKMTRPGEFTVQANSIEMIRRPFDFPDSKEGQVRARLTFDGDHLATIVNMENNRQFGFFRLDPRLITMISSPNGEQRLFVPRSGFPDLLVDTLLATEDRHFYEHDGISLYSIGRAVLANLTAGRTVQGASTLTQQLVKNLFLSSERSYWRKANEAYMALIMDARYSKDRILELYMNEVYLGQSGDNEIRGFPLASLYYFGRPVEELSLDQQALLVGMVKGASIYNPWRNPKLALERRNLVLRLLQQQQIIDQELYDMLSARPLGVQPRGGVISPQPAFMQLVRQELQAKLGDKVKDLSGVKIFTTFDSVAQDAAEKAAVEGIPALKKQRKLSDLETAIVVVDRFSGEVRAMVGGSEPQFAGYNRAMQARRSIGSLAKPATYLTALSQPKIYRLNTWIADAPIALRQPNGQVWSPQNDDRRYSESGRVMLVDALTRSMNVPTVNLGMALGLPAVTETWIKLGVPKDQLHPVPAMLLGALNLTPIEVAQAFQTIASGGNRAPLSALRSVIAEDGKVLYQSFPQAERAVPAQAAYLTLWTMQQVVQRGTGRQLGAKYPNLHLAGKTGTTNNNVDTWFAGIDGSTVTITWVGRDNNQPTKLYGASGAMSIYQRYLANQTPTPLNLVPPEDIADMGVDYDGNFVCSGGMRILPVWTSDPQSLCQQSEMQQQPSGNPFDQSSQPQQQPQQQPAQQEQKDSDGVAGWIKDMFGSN

PBP1A (untagged, purified) (E. coli), sequence (P02918 whole entry): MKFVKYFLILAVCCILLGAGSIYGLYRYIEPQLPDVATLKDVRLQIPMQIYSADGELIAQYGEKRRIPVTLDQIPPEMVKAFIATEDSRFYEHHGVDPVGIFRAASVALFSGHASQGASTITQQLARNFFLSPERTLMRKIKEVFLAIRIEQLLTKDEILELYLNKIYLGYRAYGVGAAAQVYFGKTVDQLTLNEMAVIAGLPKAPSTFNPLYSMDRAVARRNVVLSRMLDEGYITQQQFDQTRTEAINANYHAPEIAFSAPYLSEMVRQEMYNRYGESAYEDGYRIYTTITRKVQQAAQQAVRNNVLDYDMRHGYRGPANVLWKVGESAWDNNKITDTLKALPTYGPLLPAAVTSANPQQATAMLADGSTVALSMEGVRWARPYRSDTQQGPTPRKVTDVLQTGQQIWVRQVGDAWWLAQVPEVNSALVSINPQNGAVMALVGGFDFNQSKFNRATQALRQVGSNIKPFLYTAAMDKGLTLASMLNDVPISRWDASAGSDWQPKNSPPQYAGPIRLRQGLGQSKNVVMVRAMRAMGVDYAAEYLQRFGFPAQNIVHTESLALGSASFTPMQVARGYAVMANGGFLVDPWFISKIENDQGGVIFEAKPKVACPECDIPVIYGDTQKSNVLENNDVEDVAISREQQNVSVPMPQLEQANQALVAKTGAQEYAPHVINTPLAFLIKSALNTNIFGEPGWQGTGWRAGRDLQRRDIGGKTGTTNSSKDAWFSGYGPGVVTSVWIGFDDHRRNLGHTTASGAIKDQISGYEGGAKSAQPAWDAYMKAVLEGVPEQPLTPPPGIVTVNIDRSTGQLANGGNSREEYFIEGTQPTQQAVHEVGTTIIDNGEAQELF

Row | Substance | GTase rate of PBP1A (consumption of dansylated lipid II), normalised to PBP1A alone, with ZipA [1] [fold] | GTase rate of PBP1A, normalised to PBP1A alone, with ZipA and FtsN together [1] [fold] | GTase rate of PBP1B (consumption of dansylated lipid II), normalised to PBP1B alone, with ZipA [2] [fold] | GTase rate of PBP1B, normalised to PBP1B alone, with ZipA and FtsN together [2] [fold] | GTase rate of PBP1A (consumption of dansylated lipid II), normalised to PBP1A alone, with FtsN [1] [fold] | GTase rate of PBP1B (consumption of dansylated lipid II), normalised to PBP1B alone, with FtsN [2] [fold]
1 | ZipA (untagged, oligohistidine tag removed by thrombin) (from UniProt P77173 1-328) (natural protein) | 2.6 | 3.4 | 1.4 | 3 | – | –
2 | FtsN-His (from UniProt P29131 1-319) (natural protein) | – | – | – | – | 1.3 | 2.6
